Test results from patent US20260041732A1, “USE OF APELIN FOR THE TREATMENT OF LYMPHEDEMA” (INSTITUT NATIONAL DE LA SANTE ET DE LA RECHERCHE MEDICALE, priority 2022, published 2026).

Key:
[1] = system: Human dermal lymphatic endothelial cells (HDLEC); experiment: Cell migration, cell junction and cytoskeleton remodeling; assay type: cell-based
[2] = system: Human dermal lymphatic endothelial cells (HDLEC); experiment: RT-qPCR validation of gene induction; assay type: cell-based; details: RT-qPCR on HDLEC
Procedure: Total RNA was prepared using RNeasy kit (Qiagen 74106) according to the supplier's instruction. 1 μg of RNA was retro-transcribed using high-Capacity cDNA Reverse Transcription Kit (Thermo Fisher Scientific, 4368813) containing Multi-Scribe Reverse Transcriptase according to the supplier's instruction. Quantitative real-time PCR was performed using OneGreen FAST qPCR premix (Ozyme, OZYA008) on a StepOne Real-time PCR System (Thermofisher Scientific). All samples were analysed in duplicates. Data was normalized relative to HPRT mRNA levels.

[3] = system: Human dermal lymphatic endothelial cells (HDLEC); experiment: Bulk RNA-sequencing, differential gene expression and GO analysis; assay type: cell-based
Procedure: Human dermal lymphatic endothelial cells (HDLEC) (single donor, juvenile foreskin, Promocell, C-12216, >95% of the cells are CD31 positive and podoplanin positive) were cultured in Endothelial Cell Media MV2 (EGM-MV2, Promocell, C-22121). NIH3T3 were cultured in Dulbecco's modified Eagle's medium (DMEM, Sigma, D6429) supplemented with 10% fetal bovine serum (FBS, Gibco, 10270-06) and 1% penicillin-streptomycin. Endothelial cells were used at passage 3-6 and human fibroblasts were used at passage 4-7. Cells were cultured at 37° C. in a 5% CO2 incubator. Culture medium was changed 3 times a week, and the cells were passaged ⅓. For collecting conditioned media, NIH3T3 were grown in 10 cm dishes, after reaching confluence, medium was removed and the cells were washed once with PBS. NIH3T3 were cultured overnight in 5 mL reduced serum medium optiMEM (Gibco), the medium was then collected and used for experiments. HDLEC were treated with 50% conditioned media/50% MV2-05% FBS. Total RNA from HDLEC transduced or not with Apelin Lentivector were prepared using the RNeasy mini kit (Qiagen 74106). Total RNA were then subjected to ribosomal-RNA depleted RNA sequencing (RNA-Seq) protocol performed by Genewiz company using Illumina HiSeq, PE 2×150 configuration. Sequence reads were trimmed to remove possible adapter sequences and nucleotides with poor quality using Trimmomatic v.0.36. The trimmed reads were mapped to the Homo sapiens GRCh38 reference genome available on ENSEMBL using the STAR aligner v.2.5.2b. The STAR aligner is a splice aligner that detects splice junctions and incorporates them to help align the entire read sequences. BAM files were generated as a result of this step. Unique gene hit counts were calculated by using feature Counts from the Subread package v.1.5.2. The hit counts were summarized and reported using the gene_id feature in annotation file. Only unique reads that fell within exon regions were counted. Distribution of read counts in libraries were examined before and after normalization. The original read counts were normalized to adjust for various factors such as variations of sequencing yield between samples. These normalized read counts were used to accurately determine differentially expressed genes. Data quality assessments were performed to detect any samples that are not representative of their group, and thus, may affect the quality of the analysis. The overall similarity among samples were assessed by the Euclidean distance between samples. This method was used to examine which samples are similar/different to each other and if they fit to the expectation from the experiment design. The shorter the distance, the more closely related the samples are. Samples were then clustered by using the distance. A principal component analysis was also performed to reveal the similarity between samples based on the distance matrix. After extraction of gene hit counts, the gene hit counts table was used for downstream differential expression analysis. Using DESeq2, a comparison of gene expression between Apelin transduced LEC against non-transduced LEC was performed. The Wald test was used to generate p-values and log2 fold changes. […] The global transcriptional change across the two groups compared was visualized by a volcano plot. Each data point in the volcano plot represents a gene. The log2 fold change of each gene is represented on the x-axis and the log10 of its adjusted p-value is on the y-axis.

[4] = system: Human dermal lymphatic endothelial cells (HDLEC); experiment: Immunoblotting of AKT, ERK and eNOS phosphorylation; assay type: cell-based; details: conditioned media
Procedure: Human dermal lymphatic endothelial cells (HDLEC) (single donor, juvenile foreskin, Promocell, C-12216, >95% of the cells are CD31 positive and podoplanin positive) were cultured in Endothelial Cell Media MV2 (EGM-MV2, Promocell, C-22121). NIH3T3 were cultured in Dulbecco's modified Eagle's medium (DMEM, Sigma, D6429) supplemented with 10% fetal bovine serum (FBS, Gibco, 10270-06) and 1% penicillin-streptomycin. Endothelial cells were used at passage 3-6 and human fibroblasts were used at passage 4-7. Cells were cultured at 37° C. in a 5% CO2 incubator. Culture medium was changed 3 times a week, and the cells were passaged ⅓. For collecting conditioned media, NIH3T3 were grown in 10 cm dishes, after reaching confluence, medium was removed and the cells were washed once with PBS. NIH3T3 were cultured overnight in 5 mL reduced serum medium optiMEM (Gibco), the medium was then collected and used for experiments. HDLEC were treated with 50% conditioned media/50% MV2-05% FBS.
Cells were scrapped and lysed in RIPA buffer (RIPA 2X, Biotech RB4476) supplemented with phosphatase inhibitor (PhosSTOP Easypack, Roche0490687001) and protease inhibitors (protease inhibitor cocktail, Sigma Aldrich). Lysates were centrifuged at 13500 g for 10 minutes at 4° C. Supernatants were then collected and mix with Laemmli buffer containing dithiothreitol (DTT 1 mM). Protein were resolved on 4-15% SDS-PAGE gels and transferred to nitrocellulose membrane (Trans-Blot Turbo RTA transfer kit, #1704271, Biorad). Membranes were blocked for 1h at room temperature in 5% BSA-TBS-T (TBS-0.1% Tween 20) and probed with primary antibody overnight at 4° C. Antibody used are the following: Phospho AKT: AKT-p ser473 (CS #4060S), AKT: santa cruz H136 (S8312), Phospho ERK: ERK1/2-p (MAPKp42/44) (Thr202/Thr204) (cell signalling #9106), ERK ERK1/2-(MAPKp42/44) (Thr202/Thr204) (cell signalling #9102), Phospho eNOS (cell signalling #9571S), eNOS (cell signalling #5880S), E2F8 (Abcam, AB109596), VEGFR3 (RID system AF349), Phospho-VEGFR3 (Affinity AF3676), CCBE1 (Sigma SAB1402017).
After three washes in TBS-T, membranes were probed with HRP-conjugated secondary antibodies at 1/10000 dilution. Signals were visualized with chemiluminescence detection reagent (Sigma) on a Chemidoc (Biorad) digital acquisition system.

[5] = cited from earlier work

B1: APELIN: bioactive peptide apelin, endogenous ligand of APJ; applied to HDLEC as conditioned media from LV-Apelin transduced NIH3T3 or by transduction (protein, listed as Homo sapiens)
chain: MNLRLCVQALLLLWLSLTAVCGGSLMPLPDGNGLEDGNVRHLVQPRGSRNGPGPWQGGRRKFRRQRPRLSHKGPMPF
[1]
  endothelial monolayer integrity: no effect
[1]; HDLEC
  cell junction or cytoskeleton remodeling: no effect
  cell migration: activation of cell migration
[2]
  CCBE1 induction: strongly confirmed
[3]
  GO analysis of down regulated genes: no biological process was significantly affected
[3]; FDR<0.05
  GO analysis for biological process, upregulated genes: enriched (FDR<0.05) for terms related to extracellular matrix (ECM) remodelling and signalisation
[3]; HDLEC, conditioned media
  number of genes up regulated by both apelin and VEGF-C: 43 genes
  number of genes up regulated by both apelin and apelin+VEGF-C: 31 genes
  number of genes up regulated by both apelin, VEGF-C and apelin+VEGF-C: 19 genes
[3]; LEC
  expression of E2F8: stimulated
[3]; compared to WT
  expression of genes related to VEGFC maturation (ADAMTS2, CCBE1): improved
[3]; conditioned media vs control NIH3T3 media, p.adj<0.05 and Log2 fold change<-0.5 or >0.5
  number of genes deregulated: 217 genes
[3]; p.adj<0.05, Log2 fold change <-0.5
  number of genes down regulated: 123 genes
[3]; p.adj<0.05, Log2 fold change >0.5
  number of genes up regulated: 94 genes
[4]; HDLEC
  eNOS phosphorylation: observed
[4]; 24 h time course
  AKT activation (phosphorylation): stimulated Akt phosphorylation after 1 hour
  ERK activation: without major effect
[4]; 24 h time course, listed as apelin
  AKT activation (phosphorylation): lesser extent than the phosphorylation induced by VEGF-C
[5]
  plasma apelin half-life: less than five minutes
